# Measured values: the nanobody polyreactivity screen of Harvey et al. (2022)
# Assay: yeast display, Sf9 membrane polyspecificity reagent, FACS + sequencing; frameworks hold sequencing errors
# Outline: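 Nanobodies from a synthetic yeast display library (Saccharomyces cerevisiae BJ5465), induced 36–48 hours with galactose, were stained 1 hour at 4 °C with 10% biotinylated, detergent-solubilized Sf9 membrane reagent, enriched on streptavidin microbeads, then FACS-sorted. Anti-HA (expression) and streptavidin (reagent binding) fluorescence set low and high (top ~1%) gates. Polyreactivity labels come from the gate of origin. Genes were colony-PCR amplified, MiSeq 2 × 250 sequenced and filtered by CDR length.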
row,Sequence,polyreactivity (PSR sort gate)
1,QLQLVESGGGLVQAGGSLRLSCAASGSIFRGYAMGWYRQAPGKERELVAAISWSGGRTYYADSVKGRFTISRDYAKNTVYLQMNSLKPEDTSVFYCNAASLRYSYTLFDCWGQGTQVTVSS,high polyreactivity
2,QLQLVESGGGLVQAGGSLRLSCAASGSIFRINAMGWYRQEPGKESELVSAISTRSGRTYYADSVKVRFTISRDNSKNTVYLQMNSLKPEDTAVYYCARYRTQASGYGGYDYWGQGTQVTVSS,high polyreactivity
3,QLQLVESGGGLVQAGGSLRLSCAASGSIFSRYAMGWYIQAPGKEMELVAGITRGGSTNYADSVKGRFTLSRDNAKNTVYLHMNSLKPEDTAVYYCAKASRRFLTLGYDYWGQGTQVTVSS,high polyreactivity
4,QLQLVESGGGLVQAGGSLRLSCAASGSLFYVYAMGWYRAATGKERELVAAISDDGDTYYADSVKGRFTISRDHEKNTVYLQMNSLKPEDTEVYFCAAEGGANEENSSPEYDYWGLGTQVTVSS,low polyreactivity
5,QLQLVESGGGLVQAGGSLRLSCAASGSTFDYNAKGWYRQAPGKERELVAAITSTGGNTYYADSVKGRFTIARDNAKNSVYIQMNSLKQEDTAVYYCNKDVARYPYGKCDYWGQGTQVTVSS,low polyreactivity
6,QLQLVESGGGLVQAGGSLRLSCAASGSTFYTNAMGWYRQAPGKERELVAVITSRGGGTYYADSVKGRFTISRDNAKNTVYLQMNSLKPEDTAVYYCAAYPLVSWGRHGTKGDYWGQGTQVTVSS,low polyreactivity
7,QLQLVESGGGLVQAGGSLRLSCAASVRIFDVYAMGWYRQAPGKERELVAAITWDGGSTYYADSVKGRFTISRDNAKNTVYLQMNSLKPEDTAVYYCAAEPVYTQRKGYDYWGHGTQVTVSS,low polyreactivity
8,QLQLVESGGGLVQAGGSLRLSCADSASIFTCYAMGWDRQAPGKESELVARINVSAGITYYADSVMGRFTISRDNAKNPVYLQMNSLNPEDTAVYYCAATGLRRPKHNYWGQGPQVTVSS,low polyreactivity
9,QLQLVESGGGLVQAGGSLRLSCAPSGRIFAPYAMGWYIPAPVKERELVAAIRLSGGSTYYADSVKGRFTISRDNAKNTVYLKMNSLKPEDTEVYYCAARYPGVARFYYWGQATQVTVSS,high polyreactivity
10,QLQLVESGGGLVQAGGSLRLTCAASGSIFNDNAMGWYRPAPVKERELVAPINSDGSTYYADSVKGRFTISRDNAKNTVYLQMNSLKPEDTAVYYCNADTLLDNFTWDADGYDYWGQGTHVTVSS,low polyreactivity
11,QLQLVESGGRIVQAGGSLRLSCAASGITIRYYAMGWYRQAPGKERELVAAITRSGSTTYADSVKGRFTISRDNAKNTVYFQMNSLKPEDTAVYYCAVDFYYLTGGVDYWGQGTQVTVSS,low polyreactivity
12,QLQLVESGGVLVQAGGSLRLSCAASGLTFAYYAMGSYRQAPGKERELVAAISWNGGRTYYAYSVKGRFTISRDNAKNTVYLQMNSLKPEDTAVYYCATRFYRPRDGLYDYWGQGTQVTVSS,high polyreactivity
13,QLQLVESGPGLVQAGGSLRLSCAPSGSTFNRNAMGCYSQAPGKERELVAVISSGGSTYYADSVKGRFTISRDIAKNTVYLQMNSLKPEDTAVYYCAAGDPQKEDYWGQGTQVTVSS,low polyreactivity
14,QLQLVESLGGLFQAGGILRLSCAASGRTLRGYGNGWYRQAPAKEREFVAAISTRGGRTYYADSVKGRFTISRDNAKNTVYLQMKILKPEDTAVYYCAAAYEPGDYDSWGQGTQVTVSS,low polyreactivity
15,QLQLVESVGGLVHAGGSLRLSCAASGSTFVLYAMGWYRQAPGKERELVATITTSGARTHYADSVKGRFTISRDNAKNTVYLQMNRLKPEDTAVYNCAAESYWTGDDYWGQGTQVTVSS,low polyreactivity
16,QLQLVESVGVLVQAGGSLRLSCAASGFIFDGYAMGWYRQAPGKERELVAAIDSGGDRTYYADSVKGRFTISRDNAKNTVYLQMNSLKPEDTAVYYCARTFRTYAPRPYQGDYWGQGTQVTVSS,low polyreactivity
17,QLQLVETGGGLVQAGASLRLSCAASGSIFVPYAMGWYIQAPGKERELVAAISRGGDTNYADSVKGRFTISRDNAKNTVYLQMISLKPEDTAVYYCNRARHLYSRWHGGYYYWGQGTQVNVSS,low polyreactivity
18,QLQLVKSWGGLVQAGGSLRLSSAASGLTFELYDMGWYRQAPGKERELVAAIDWSATRTYYADSVKGRFTISRDNAKNTVYLQMNSLKPEDTEVYYCNAEAVYEYWIYDYWGQGTQVTVSS,high polyreactivity
19,QRQLVESGGGLVQAGGSLRLSCAASGFIFDSNAMGRYRQEPGKERELVAAFAARGGSTYYADSVKGRFTISRDYAKHTLYLQMNSLKPEETAVYNCNAVYIVGGYWGQGTQVTVSS,high polyreactivity
20,QRQLVESGGGLVQAGGSLRLSCAASGIIFQGYAMGWYRQAPGKERELVAAISHHADSTYADSVKGRFTISRDNAKNPVYLQMNSLKPEDTAVYYCNADTPVRSDYWGQGTQVTVSS,low polyreactivity
21,QVEHVESGGGLVQAGGILRLSCAASGSTFYGYAMGWYRQARGKERELVAAITSSGGSTYYADSVKGRFTISRDNAKNSVYLQMNSLKPEDTADYYCNAKRAPWGTLYNYWGQGSQVTVSS,high polyreactivity

row,Sequence,polyreactivity (PSR sort gate)
1,QVEIVESGGGLVQAGGSLRLSCAASGSIFRWNAMGWYRQAPGKERELVAAISKRGTNTYYADSVKCRFTISRDNAKNTVYLQMNSLKPEDTAVYYCNAQGHRQNGLGDYWGQGTQVTVSS,high polyreactivity
2,QVELQVSGGGLVRAGGSLRLSCAASGNIFDADIMGWYRQAPGKERELVASITGGGSTSYAESAKGRFTISRDNAKNAVYLQMNSLKPEDTAVYYCNAYFIYEGGWYYKAQYDYWGQGTQVTVSS,low polyreactivity
3,QVELVESGGGLVQAGGSLRLICAASGFTYTWNAMGWYRQAPGKERELVAGITRGGSTNYADSVKGRFTISRDNAKNTVYLQINSLKPEDTAVYYCNVSFYFHHAGYDFWGQGTQVTVSS,low polyreactivity
4,QVELVESGGGLVQAGGSLRLSCAASGCIFTFYAMGWYRTAPGKARELVAAISSSGTSTYYADSVKGRFTISRDNAKNTVYLQMNSLKPEDTAVYYCAAGTAYSRYGYWGQGTQVTVSS,high polyreactivity
5,QVELVESGGGLVQAGGSLRLSCAASGFTFHSNVMGWYRQAPGKERELVAAISNGGGSTYYADSVKGRFTISRDNAKNTVYLQMNSLKPEDTAVYYCDKRTYPGFGYWGQGTQVTVSS,high polyreactivity
6,QVELVESGGGLVQAGGSLRLSCAASGFTFVSYAMGWYRQAPGKEREFVATISKRGGSTYYADSVKGRFTISRDNAKNTVYLQMNSLKPEDTAVYYCAVRYPYYSYRAKLGYCGQGTQVTVSS,high polyreactivity
7,QVELVESGGGLVQAGGSLRLSCAASGSTFDPNAMGWYRQAPGKERELVASITSRGGSTYYADSVKGRFTISRDIAKNTVYLQMNSLKPEDTADYYCAAVGGATYSWNGYSWYPWHNYWGQGTQVTVSS,low polyreactivity
8,QVELVESGGGLVQAGGSLRLSCAASGSTFYRYAMGWYRQAPGKEREFVARIDWSDGSTNYADSVKGRFTISRDTAKNTVYLQMNSLKPEDTAVYYCAADTYYDTYDGEYEYWGQGTQVTVSS,low polyreactivity
9,QVELVESGGGVVQAGGSLRLSCAASGYIFRAYAMGWYRQAPGKERELVAAISSRGGSKYYADSVKGRFTSSRDNAKNTVYLQMNSLIPEDTAVYYCAAAYRKPYIGYGYWGQGTQGTVSS,high polyreactivity
10,QVELVYSGGGLVQAGGSLRLSCPASGSTFWYYAMGWSRQPPGKERELVAAINSGGSTFYADSVKGRFTISRDNAKNTVYLQMNSLKPEDTAVYYCAKRSYDYRRYYWGQGTQVTVSS,high polyreactivity
11,QVHHVESGGVLVQAGRILRVSCAASGSTFPRNAMGWYRHAPGKERELDAAITSRGGRTYYADSVKGRFTISRDNAKNTVYLQMISLKPEDTAVYYCARVGGIGSGRTGYGYWGQGSQVTVSS,high polyreactivity
12,QVHLAESGGGLVQAGGSLRLSCASSGIIFYFYAMGWYRQAPGKERELVAAISGTGGRTYYADSVKGRFTISRDNAKNTVYLQMNSLKPEDTAVYYCNADDTPVPSIRFDYWGQGTQVTVSS,low polyreactivity
13,QVHLEESGGGLVQAGGSLRLSCAASGFIFNAYAMGWYRQAPGKERELVAAISSSGGRTYYADSVKGRFTISRDNAKNTVYLQMNSLKPEVTAVYYCNTYRYYQYYRSMDYWGQGTQVTVSS,high polyreactivity
14,QVHLEESGGGLVQAGGSLRLSCAASGRIPFYAMGWYRQAPGKEREFVAAIRFSGGSTFYADSVKGRFTISRDNAKNTVYLQMNSLTPEDTAVYYCAAYLYYPFYWWRDYCGQGTQVTVSS,high polyreactivity
15,QVHLLESGGALVQAGGRLRLSCAASGRIFKTYAMGWYRQAPGKELEFVAAITASGGRTYYADSVKGRFTISRDNAKNTVYLQMNSLIPEDTAGYYCNARLVYYSYEEMDYWGQGTQVTVSS,low polyreactivity
16,QVHLQESGAGLEQAGGSLRLSCAASGYISDIGTMGCYRQAPGKEREFVATIVVGSTTNYADSVKGRFTISRDNAKNTLYLQPESGRYRGVLLRGWLLAVGKFTYWGQGTQETVSS,low polyreactivity
17,QVHLQESGGGLVQAGGSLRLSCAASGYITLAQTIGWYRQAPGQEREFVASIALGSSTYYTDSVKGSFTISRDNAKTTVYLQMNSLKPEDTAVYYCAARVGSSYAHDYWGQGTQVTVSS,low polyreactivity
18,QVHLQGSGGGLVQAGGSLRLSCAASGYIFQNDPMGWNLQAPGKERELVAGIDNGTSTNYADSVNGRFTISRDNAKNTVYLQMNSLKPEDTAVYYCSAAGQADDTLGYWGQGTEVTVSS,low polyreactivity
19,QVHLVDSGGGLVQAGGSLGLNCAASGRTLRYNAMGWYRQATGIERELVAAINWNGGSTYYADSVKGRFTISRETAMYTVYLQMNRLKPEDTAVYFCNDDFYHRYDWGQGTQVTVSS,high polyreactivity
20,QVHLVDSGGGLVQAGGSLRLSCAASGFTYYAMGWYRQAPGKERELVAAITRSGGSTYYADSVKGRFTISRDNAKNSVYLQMKSLKPEDTAVYYCAASGKALKYTARYGSWGQGTQVNVSS,high polyreactivity
